What was measured:
[1] = molecular target: GNNV-P R276A (Dragon grouper nervous necrosis virus); assay: AUC; sedimentation velocity, pH 5.0, no divalent ions; 0.25–0.4 mg/mL, 60,000 rpm, 20 °C, absorbance at 280 nm, c(s) model (SEDFIT); monomer to trimer
[2] = molecular target: GNNV-P: Dragon grouper NNV capsid protein P-domain (aa 221–338) plus the flexible linker (aa 214–220), wild type (Dragon grouper nervous necrosis virus); assay: as above

Substance	stoichiometry N [1]	stoichiometry N [2]
GNNV-P R276A (domain or fragment)	3	
GNNV-P: Dragon grouper NNV capsid protein P-domain (aa 221–338) plus the flexible linker (aa 214–220), wild type (domain or fragment)		3

From publication PMC11406519
